Reference: publication PMC10403523, “The AT-hook is an evolutionarily conserved auto-regulatory domain of SWI/SNF required for cell lineage priming” (Nature Communications, 2023)

Biological target: T1, histone H4 of Xenopus laevis, in the 29N59 nucleosome (Xenopus laevis, UniProt P62799 1-103)
T1 construct: histone H4, Xenopus laevis; Stood within the nucleosome in the cross-linking
Assay: cross-linking; BS3 cross-linking with mass spectrometry (CX-MS): 35 nM FLAG tagged SWI/SNF, 35 nM 29-N-59 nucleosomes, 200 nM Gal4-VP16, 115 μM BS3, room temperature, 2 h
Conditions: both partners purified

binding result: binds
B1: Snf2, catalytic subunit of yeast SWI/SNF, with a C-terminal double FLAG epitope (enzyme)
chain: MNIPQRQFSNEEVNRCYLRWQHLRNEHGMNAPSVPEFIYLTKVLQFAAKQRQELQMQRQQQGISGSQQNIVPNSSDQAELPNNASSHISASASPHLAPNMQLNGNETFSTSAHQSPIMQTQMPLNSNGGNNMLPQRQSSVGSLNATNFSPTPANNGENAAEKPDNSNHNNLNLNNSELQPQNRSLQEHNIQDSNVMPGSQINSPMPQQAQMQQAQFQAQQAQQAQQAQQAQQAQARLQQGRRLPMTMFTAEQSELLKAQITSLKCLVNRKPIPFEFQAVIQKSINHPPDFKRMLLSLSEFARRRQPTDQNNQSNLNGGNNTQQPGTNSHYNNTNTDNVSGLTRNAPLDSKDENFASVSPAGPSSVHNAKNGTLDKNSQTVSGTPITQTESKKEENETISNVAKTAPNSNKTHTEQNNPPKPQKPVPLNVLQDQYKEGIKVVDIDDPDMMVDSFTMPNISHSNIDYQTLLANSDHAKFTIEPGVLPVGIDTHTATDIYQTLIALNLDTTVNDCLDKLLNDECTESTRENALYDYYALQLLPLQKAVRGHVLQFEWHQNSLLTNTHPNFLSKIRNINVQDALLTNQLYKNHELLKLERKKTEAVARLKSMNKSAINQYNRRQDKKNKRLKFGHRLIATHTNLERDEQKRAEKKAKERLQALKANDEEAYIKLLDQTKDTRITHLLRQTNAFLDSLTRAVKDQQKYTKEMIDSHIKEASEEVDDLSMVPKMKDEEYDDDDDNSNVDYYNVAHRIKEDIKKQPSILVGGTLKDYQIKGLQWMVSLFNNHLNGILADEMGLGKTIQTISLLTYLYEMKNIRGPYLVIVPLSTLSNWSSEFAKWAPTLRTISFKGSPNERKAKQAKIRAGEFDVVLTTFEYIIKERALLSKVKWVHMIIDEGHRMKNAQSKLSLTLNTHYHADYRLILTGTPLQNNLPELWALLNFVLPKIFNSVKSFDEWFNTPFANTGGQDKIELSEEETLLVIRRLHKVLRPFLLRRLKKDVEKELPDKVEKVVKCKMSALQQIMYQQMLKYRRLFIGDQNNKKMVGLRGFNNQIMQLKKICNHPFVFEEVEDQINPTRETNDDIWRVAGKFELLDRILPKLKATGHRVLIFFQMTQIMDIMEDFLRYINIKYLRLDGHTKSDERSELLRLFNAPDSEYLCFILSTRAGGLGLNLQTADTVIIFDTDWNPHQDLQAQDRAHRIGQKNEVRILRLITTNSVEEVILERAYKKLDIDGKVIQAGKFDNKSTSEEQEALLRSLLDAEEERRKKRESGVEEEEELKDSEINEILARNDEEMAVLTRMDEDRSKKEEELGVKSRLLEKSELPDIYSRDIGAELKREESESAAVYNGRGARERKTATYNDNMSEEQWLRQFEVSDDEKNDKQARKQRTKKEDKSEAIDGNGEIKGENIDADNDGPRINNISAEDRADTDLAMNDDDFLSKKRKAGRPRGRPKKVKLEGSENSEPPALESSPVTGDNSPSEDFMDIPKPRTAGKTSVKSARTSTRGRGRGRGRGRGRGRGRGRPPKARNGLDYVRTPAAATSPIDIREKVAKQALDLYHFALNYENEAGRKLSDIFLSKPSKALYPDYYMIIKYPVAFDNINTHIETLAYNSLKETLQDFHLIFSNARIYNTEGSVVYEDSLELEKVVTKKYCEIMGDNSQLDFTEFDEQYGTRPLVLPPVVTSSVAESFTDEADSSMTEASV
notes: Snf2, catalytic subunit of SWI/SNF, S. cerevisiae; also called WT; SNF2-2FLAG; source: S. cerevisiae, SNF2-2FLAG in a Δsnf2 strain; not shown: FLAG x2, C-terminal, kept
